Consider 1 molecule from article PMC10781284, “Fluorescence Super-Resolution Imaging Chip for Gene Silencing Exosomes”.

The series deals with PD-L1 (on HeLa exosomes) (human, UniProt Q9NZQ7 19-290). Nature of the series: fluorescence colocalization on captured exosomes (AF647/PKH26); 1 nM aptamer; exosomes captured by CD63 aptamer; microfluidic channel, PBS (10 mM, pH 7.4) washes, 2% BSA block at room temperature; exosomes in culture medium; binding buffer of the aptamer not stated. The note with it: protein: native; label: 5' Alexa Fluor 647.
Sequence of PD-L1 (on HeLa exosomes) (Q9NZQ7 19-290): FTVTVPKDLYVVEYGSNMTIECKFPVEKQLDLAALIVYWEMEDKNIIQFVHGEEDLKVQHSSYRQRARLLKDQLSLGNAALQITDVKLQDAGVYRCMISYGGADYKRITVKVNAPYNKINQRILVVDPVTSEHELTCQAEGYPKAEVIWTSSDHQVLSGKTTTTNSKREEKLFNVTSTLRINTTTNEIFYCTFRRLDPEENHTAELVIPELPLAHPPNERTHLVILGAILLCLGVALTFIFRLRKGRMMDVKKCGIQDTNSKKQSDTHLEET

B1: PD-L1 aptamer (PD-L1 adaptor strand) (ssDNA)
DNA: TACAGGTTCTGGGGGGTGGGTGGGGAACCTGTT
On to B1, for which the binding result is listed as “binds”.
